Assay results reported in the DeepSol protein solubility set.

Experiment: soluble on expression in E. coli; label from the status in PepcDB or PDB records

| Sequence | soluble on expression in E. coli |
| --- | --- |
| MAHHHHHHMNVVDFTWSRIRLFDHLAVILIYEELLKNPLCKITNVYESETRKYKPYPLNTLQMTKLVSIYFKISSKECMMLAEKLYNKGYISYPRTETNYFPDSMNLHKIINELRKNDNFGWYANKLCEEHKYQKPRKGKMNDKAHPPIHPVKNMNKSLKVEEKEWKLYEFICKHFLAVCSNDAIGYNTKVTAKIQEEQFFCKGLKIKEKNYLEIYTYEKWNDKIIPSFQVDDEFYPTSLLIEEGITQPPKYLSESNLLTLMDKFSIGTDATMHEHIENIQKRNYVIKNSKSLFIPTNLGIALVQSYKKFKDIGIDLTDPSLRAKMEKDMSLVASGVKQKNEIIRNYIDIMKYIYQEIYNRIDVLDKNIHYYLNNPDQLSYT | not soluble |
| DTDGLWAALTEAAASVEKLLATLPEHGARSSAERAEIAAAHDAARALRVRFLDTHADAVYDRLTDHRRVHLRLAELVEAAATAFPGLVPTQQQLAVERSLPQAAKEGHEIDQGIFLRAVLRSPLAGPHLLDAMLRPTPRALELLPEFVRTGEVEMEAVHLERRDGVARLTMCRDDRLNAEDGQQVDDMETAVDLALLDPGVRVGLLRGGVMSHPRYRGKRVFSAGINLKYLSQGGISLVDFLMRKELGYIHKLVRGVLTNDDRPGWWHSPRIEKPWVAAVDGFAIGGGAQLLLVFDRVLASSDAYFSLPAAKEGIIPGAANLRLGRFAGPRVSRQVILEGRRIWAKEPEARLLVDEVVEPDELDAAIERSLTRLDGDAVLANRRMLNLADESPDGFRAYMAEFALMQALRLYGHDVI | soluble |
| MGSDKIHHHHHHMKQILNTLYVMTQGAYVCLDHETVKVEVKGALQMQVPLHHLGAIVTMGNVMMSPFIMARCAEDGRALVILDRNGKFKCRVVGKTSGNVLLRQTQYEAVRDRERSAAIARNMVAGKVKNARQILMRGARETTDADESAVLRKAGDTLADALFHLKDATDIDHVRGLEGEAANAYFQVFDRMVKEEERPAFRMNGRNRRPPLDPMNALLSFLYTLLLNDCISAVEGVGLDSQMGFLHVLRPGRPSLGLDIMEEFRAVLADRLALTLINRKQITEKHFEVRPGGATYLDDAGRKEVIMAYQKRKQDEFHHPVLDQKVPFGLLPHVQARLLARHLRGDLEQYTPVLYS | not soluble |
| MSDRNCYKCQQPGHISRNCPNGESDGGRRGGGGGSTCYNCQETGHFSRDCPKGGSGGGQRGGGGGGGSCYNCGGRGHYSRDCPSARSEGGSGGYGGRGGEGRSFGGQKCYNCGRSGHISRECTESGSAEEKRCYQCQETGHISRDCPSQTN | soluble |
| MAHHHHHHKNTAKTAPNHDRIKNLIAKLNNSKDEDKKKNSPNGQINRTGDVYAKNELINKKKKHINFETFLRIFLETYEEPLSVDELITSFEFFDKEKSGYLDEEKVRFILKNSEERLADEDMKLFLNSLNLRDKDKIDYVMLAKRLKNVA | soluble |
| EIKQNEQRLNAIVQNLVSGVMLINVDKQVIMTNRTMYQILGETEITGKPFYEVIKSFALSQLIDATFETKTMQQKEIILYFPREMILDASVSPILAENGEITGIILLLHDIT | not soluble |
| MGSDKIHHHHHHMEEYFNGLLKEVDQRMATTAPGMDGKEVIGVCREMVSYLKGKNRELKEYALAHPFAGDAKEILYFKYYKPALTGRLLYYYRVYQIESGCPACLRVAEPYYRKAMERAERMMERYLPFYQYYHSGATYRDSYYFLRAKGELSPESGSFVLDEEAEFSTGYDILAARLISVEMLLVHLSRRMERAAQGTETEAVPEKEHRWTNTKVAAILLVYGIHVTGSVDEGNAEIGELAALFEKHFHVDLGNVYHAFGRLRGQQNPTAFLDEMKERLLKKMRDMDSR | not soluble |
| MAHHHHHHMGNTTDPGAAPLHSSGFFKISARFPKAAVAASGAGPSLKRRRAEAFVVGDDGVPTLRTTAIAPGEQVGGDGTAEPFEFFKAQQDAFMNDIEGIKDAQLQRFNRKARRIMKSRRAWASSSSSGRHANSQQHSSSSGTHVTGSGALSKTGAKKTKPKRY | soluble |
| MQPLERSLTGAVGAALAAAGLRSRSGLEKVVLTGLGAGLIAVAARGQNPLATALKIEQNDEGETVVRDAVTIGKPAEQLYAVWRDLPGLPLLMTHLRSVEVLDDKRSRWTVEAPAPLGTVSWEAELTADEPGKRIAWRSLPGARIENSGEVLFRPAPGARGTEVVVRLTYRPPGGSAGAVIARMFNQEPSQQLRDDLMRFKREQELGLEHHHHHH | not soluble |
| MSLKRAEPQSLQVSQNELQAMAYSDPLTGLGNRYRLRDKIRMLASERSSDPAPFTVGIANIDGFKPINDLFGVQAGDEILCQVAHRLKACIPDGAIVTRHDGDEFAFVLPLIFERIGAERIGNMIKDVLSAPYDLGDRNVRLSSSFGFAIYPFAGDEYEDLLKSAETALYRSKRRGRGQITVYSREIAQEMKRATQLEQALRNAIITDAIDVHFQPIVRLEEAKVIGFEALARWNDPDLGFVSPAVFVPLAEERGFIDALSEALLRKAAEAALFWPRELFLSFNLSSAQLMDPSTSDNILSILSRVGLDPHRLELEITETAVMTSADTAQRIISELQSAGVRISLDDFGTGQSSLGRLRDFTFDKVKIDRAFVSRISSDRPSEHIIKAIVAMCEGLDLEVVAEGIEERVEEEKLRALGCAMGQGYFYGRPVDAAATQRYLHENYREILSDISEGHHHHHH | soluble |
| GPGMSSLSNSLPLMEDVQGIRKAQKADGTATVMAIGTAHPPHIFPQDTYADVYFRATNSEHKVELKKKFDHICKKTMIGKRYFNYDEEFLKKYPNITSYDEPSLNDRQDICVPGVPALGTEAAVKAIEEWGRPKSEITHLVFCTSCGVDMPSADFQCAKLLGLHANVNKYCIYMQGCYAGGTVMRYAKDLAENNRGARVLVVCAELTIMGLRAPNETHLDNAIGISLFGDGAAALIIGSDPIIGVEKPMFEIVCTKQTVIPNTEDVIHLHLRETGMMFYLSKGSPMTISNNVEACLIDVFKSVGITPPEDWNSLFWIPHPGGRAILDQVEAKLKLRPEKFRAARTVLWDYGNMVSASVGYILDEMRRKSAAKGLETYGEGLEWGVLLGFGPGITVETILLHSLPLM | soluble |
| MQPDLHCRTLAAHTLKHFRALSPLTHCMTNDVVQTFTANTLLALGASPAMVIDPVEARPFAAIANALLINVGTLTASRADAMRAAVESAYDAKTPWTLDPVAVGALEFRRRFCLDLLSLRPAAIRGNASEILALSGMALGGRGVDTTEAALAALPAAQALARQIDCIVVVTGEIDYVTNGQRTLSIPGGDPLMTRIVGTGCALSAVVAASCALPGAALDNVASACCWMKLAGQAAAERSEGPGSFIPAFLDALYHLDVEAANATN | not soluble |
| MEGLARVFLIGGASKAVRYDEQTTIERVIHVVARGIGISQVAVAHFALRLVTGPSPQTAGSGDSLWLHPMLRITQLPHIYARHLPIGVCDEIKLEMRMRFMPQSVYELQATDSSAFVYLHEQVVDEFFSHVAWRSSVEVALEVAALKVCRDFAEHQHNKGADHHLEDLDIEACIQSLIPNVLHNPGFKHSHLKKTFTAYIKKFSATSPNESIIRSLALLLEVVKFDVELFKASLGAGWTKPVELVVGPHTGLSYRLNERCDSSRLLELRTIAEITIRKMENGSEKTLMQLNLSGAAKPVLITLSTEELSQSLAHLLDGYQMLYNQRDSVFKLKGIERCETLTMHEATIRPKTPNNIDSNIRLRRELITLKELIGGGQFGNVYKAVYHDLEKDERIAVAVKVCKTDAEPADTQLILQESSLMRNFRHSNIIQLIGVCVDQPMWLVLELAPKGELREYLQQEKDWLPLRILTLFCSQICDSLVYLHSTRFVHRDIAARNILVCSPQCVKLADFGLSRALDYDAVYTASRGKLPIKWLAPESVNYRQFSMASDVWMFGVCMWEIFSLGVKPWAGVTNSDVIMHIEQGSRPPCPEKCPTALYNFIRSKMWAIEPHKRPTVDQIYAIIEDVRQQIIQNIPPEQIIVGKPMTAAGVIVAEMSSLPGLTLYRTMEDQKRQAEEDAKWLEQEDDEDEDDQDIDQIPSTSHSSVENIRTSNGYLHHTPTSTRSLRFEDKTSRGLRRSVDGVCDAVTKLQNSFNNLTHNDDFLHSVKEVTSQLREMLIVASGMRDRVTTTTQRTDVDMTKTLIANDMKQMSRVMGKLQVNGHQATYNTLRRDVVRICGELAVNCTTLQLQLTQPPLENEFSSLLSNC | not soluble |
| MGSDKIHHHHHHMQLAQARNDNGERFVLVIEDDPTQARRLDDVNSVHALALTALDRKVGLAALIKEWPGDARVDAVALADKGQLLAPLDHPDPAHLLVTGTGLTHLGSAEGRDKMHRQMNEADQSDQPLTDSMKMFRKGLEGGKPAPGDFGVQPEWFYKGDGGIVMAPGEALRMPHFALDGGEEPEVAGLYLIDNDGVPRRIGYALGNEFSDHVTERENYLYLAHSKLRACSFGPTLLIDELPDDVQGTSRIRRGDEVLWEKPFISGEANMCHTLANLEAHHFKYAQFCRPGDVHVHFFGTATLSFSDGIIPQPGDVFEIDAKPFALPLRNPLSKDAVAPAPSVKPL | not soluble |
| MSEVDAQEEFHDAPEEAVIEIQKDFVAEIEQDNSNAQLVEEGDDQLVTAEADDEKSAQQVDEDRTEDQVPDITGTEYVDPMTTSMDGIEDLPANDEAQFEDTILEEDELPDQLESAENQEPRSELVSSGVEEEIIEEEDIEEIEESDYVEESAPADEPAPEEEKPQEEAPAEEPAPAEEAPQEEVPAEEPVAEETAPAEEAAVEEPVVEEAAPVEEAPEAEETAPAEEPLIEVAVEEAPAEEPVAEEAEPEAEKQEFELQAPPEGKRPRTPNDLDNPTADEEPAAELEADAGSEVPPTPKTAASEKQSVPPTPKSAAPSEVPPTPKSAAPSEVPPTPKSAAPSEVPLTPKSAAQSSVPPTPKSAVPSEAPPTPRSAAPSDVPPTPKSNGHIANGSIPGTPSVAQESAKATPAATPAATATPAATATPAATGTPKADTAFNFEETPATPRSSVPATPTESNLTTPAPKTPKTPKTPRTPRTPKTPRTPKTPAVVEPEPEPVAEEPEPVAEPEPEPEPVAEAEPEAEPAVEEEPAEEPEPAADETATEPTAEEAEPEAVEESIEKTEVVEEESAPPAARQSSPSPPPARRRPQSPSPERQRTSRHADRDITSYDEDSYRAVPPPRMPTATSFSSWSPPDKQSYTPISPFVSTANKYRNEYTSGSSYRPTNMYTSHFDDIVATGAFSSALYSTNRLIERSRSRTRERKQAMRSQRSASNYYRYSSQAPAPLRAREYSTPPTREISRAPSRNTSFVSFLDYSSAKQGELSRANSRTSIYGDSLSRSCSRANVDAYLGGGRLSRVDSYVRDIHTPYEYEVPSTYDRYRSSSRGPSYSTINGYTAYISSPSYVETESTRRMKRYQRDTSPAMVRSMYEGRIGQLERSLSREVIQKDRVCLWRLGNVVYGGLYRKKYDADLEKAVQYYSSCAKKRRF | not soluble |
| MDLWLLANDESCLRHQAFWHSWQGPLVERQQSNNITLTDVLEGVHAYLQGHLDDFEIQEAFVTKELPLKLAQLRERWERYVVLNAELAARGRGGFERNRRDD | soluble |
| MHHHHHHSSGVDLGTENLYFQSMKSVHSSPQNTSHTIMTFYPTMEEFADFNTYVAYMESQGAHQAGLAKVIPPKEWKARQMYDDIEDILIATPLQQVTSGQGGVFTQYHKKKKAMRVGQYRRLANSKKYQTPPHQNFADLEQRYWKSHPGNPPIYGADISGSLFEESTKQWNLGHLGTILDLLEQECGVVIEGVNTPYLYFGMWKTTFAWHTEDMDLYSINYLHFGEPKTWYVVPPEHGQHLERLARELFPDISRGCEAFLRHKVALISPTVLKENGIPFNCMTQEAGEFMVTFPYGYHAGFNHGFNCAEAINFATPRWIDYGKMASQCSCGESTVTFSMDPFVRIVQPESYELWKHR | soluble |
| MSGNQNGENVQQKKEKMCSIGETIYTWTQNKHATTYVGTYTKAFFSGEVCREIREHDEFLGMSFSSFF | not soluble |
| MVEFSKESSTRVSVNSQRQISHVQKRELTKRKSVRFETQTVESTSEFVGKTNQEWTFVADCFNLDKETRSEREQELLSLCNFFDSNEKELELSDASDESDDSVPFELFAEQGMRIAWTQIVTSPSLSNLRLASILRFDTKKKIVSPFIEDEKSPQEFFLDDNEAVENAFKGVLPCTNSQKVSRSRRASKSEEENDFVTAKGSDFWSDVEF | not soluble |
